In PMC7726437 (2020):

Tests used:
Assay in all cases: BLI
[1] = molecular target: T1, anti-idiotype vNAR-Fc variant S7 (bamboo shark)
T1 chain: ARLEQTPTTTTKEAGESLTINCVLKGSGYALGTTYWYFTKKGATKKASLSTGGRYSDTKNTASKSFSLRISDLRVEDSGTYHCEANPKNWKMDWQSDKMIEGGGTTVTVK

[2] = molecular target: T2, anti-idiotype vNAR-Fc variant S2 (bamboo shark, biotin (EZ-Link Sulfo-NHS-LC-Biotin) in the cellular binding assay only)
T2 chain: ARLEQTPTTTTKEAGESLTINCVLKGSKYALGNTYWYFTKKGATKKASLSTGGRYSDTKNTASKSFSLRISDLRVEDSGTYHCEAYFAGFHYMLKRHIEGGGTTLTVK

[3] = molecular target: T3, anti-idiotype vNAR-Fc variant S9 (bamboo shark, biotin (EZ-Link Sulfo-NHS-LC-Biotin) in the cellular binding assay only)
T3 chain: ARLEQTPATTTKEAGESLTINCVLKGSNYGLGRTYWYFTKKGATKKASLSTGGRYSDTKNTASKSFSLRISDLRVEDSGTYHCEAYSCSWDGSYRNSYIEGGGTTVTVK

[4] = molecular target: T4, anti-idiotype vNAR-Fc variant S4 (bamboo shark)
T4 chain: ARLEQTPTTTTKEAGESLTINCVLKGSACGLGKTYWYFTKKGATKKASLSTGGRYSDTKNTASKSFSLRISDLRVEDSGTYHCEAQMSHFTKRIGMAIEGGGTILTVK

- Kd [1]: 1.9 nM
- Kd [2]: 4.5 nM
- Kd [3]: 11 nM
- Kd [4]: 5.3 nM
B1: soluble recombinant B-cell receptor (BCR) of lymphoma cell line SUP-B8, produced as full-length IgG (antibody, V domains shown)
VH: LVQSGGEVKKPGASVKVSCKASGYTFHSYGITWVRQAPGQGLEWMGWINGYNGYTNYAQKLQDRVTMTTNTSTNTVYMEVRSLRSDDTAVYYCARDDCSGDNCYMSAYWGQGTVVTVSS
VL: QSVLTQPPSASGTPGQRVTISCSGSSSNIASNYVYWYQQLPGMAPKLLIYRDNQRPSGVPDRFSGSRSGTSASLAISGLRSDDEADYYCATWDDSLSGWVFGGGTKLTVL
